Paper PMC5985169, “Somatostatin Decorated Quantum Dots for Targeting of Somatostatin Receptors” (Iranian Journal of Pharmaceutical Research : IJPR, 2018)

Experiment: HPLC analysis of SST before and after thiolation (elution time related to hydrophilicity)
Assay type: physicochemical
Conditions: chromatographic, C18 reversed-phase analytical column, linear gradient 26% to 39% acetonitrile in water with 0.1% TFA, 1.0 mL/min, detection at 274 nm
Method: Then, thiolated-SST labeled with (1.5 eq) eosin-5-maleimide. Eosin-5-maleimide solution was mixed with thiolated-SST, the reactants were stirred at 600rpm for 30 min. The products were purified by running in Sephadex G-25 mini-column, and identified by thin layer chromatography. HPLC analysis was performed for SST using a linear gradient from 26% to 39% acetonitrile in water, with 0.1% TFA as mobile phase at a flow rate of 1.0 mL/min using a C18-reversed phase analytical column.
The thiolation of SST was investigated using HPLC. […] The single peak eluted at about 19 min corresponded to SST. Thiolated-SST eluted at 18.6 min. The signal consists of multiple neighbouring peaks, these neighbouring peaks appeared between 20.5 and 23 min (Figure 7) and could be related to SST in isomerized form. Neither thiolated-SST nor SST degradation products were detected. Thiolated-SST eluted earlier than SST which is related to the increase in hydrophilicity.
Figure 7 HPLC chromatographs of SST reacted with Traut´s reagent. Signals were detected at 274 nm. Single peak eluted at about 19 min corresponded to SST. Thiolated-SST eluted at 18.6 min.

With Somatostatin acetate [SST] the “HPLC elution time (earlier elution related to increase in hydrophilicity)” value was “about 19 min”.

With “Thiolated-SST: SST thiolated using Traut's reagent” the “HPLC elution time (earlier elution related to increase in hydrophilicity)” value was 18.6 min.
